In patent publication US20210403576A1 (HELIXMITH, published 2021):

Key:
[1] = molecular target: T1, human c-Met (Sino Biological) (human, UniProt P08581 25-932, limits assumed); assay: SPR (Biacore T200), IgG captured on Protein A CM5 chip, c-Met 0.15-2 nM as analyte
T1 construct: Analyte in the Biacore assay; also called antigen (c-Met); printed as "human c-Met antibody (Sino Biological, Beijing, China)"
Method: (§1) The candidate antibodies selected in Example 4 were measured for binding affinity for the antigen (c-Met) with the aid of Biacore. […] The anti-c-Met antibodies to be analyzed were immobilized on Protein A CM5 chips (GE Healthcare, Little Chalfont, UK) through which human c-Met antibody (Sino Biological, Beijing, China) with various concentrations ranging 0.15 to 2 nM was allowed to pass, thereby acquiring sensorgrams. On the basis of the acquired sensorgrams, association constants kₒₙ and dissociation constants koff were measured to calculate Ko value, the ratio koff/kₒₙ.

[2] = molecular target: T1, human c-Met (Sino Biological); assay: derived from the Biacore KD, normalised to VH0/Vk0
Method: as §1
(§2) In order to select a final candidate group from the 21 candidate antibodies selected in Example 4, comparison was made according to criteria specified into expression level, binding affinity for antigen, thermal stability, and biopotency. As a rule, the expression level is considered to be the most important index when time and cost are taken into consideration from a point of view of production. […] Thereafter, degrees of improvement in each of the remaining candidate antibodies compared to the reference antibody (VH0/Vk0) were digitized with regard to the selected indices. For normalization, analysis index measurements for individual candidate antibodies were divided by average values to give ratios (index 1) which were in turn divided by the measurement for the antibody VH0/Vk0 (index 2) (Tables 6 to 9). In addition, the measurements for the four indices were multiplied for comprehensive comparison of the four indices of the candidate antibodies. The final results (index 3) are listed in a descending order in Table 10.

[3] = molecular target: T1, human c-Met (Sino Biological); assay: derived from the Biacore KD, printed 'Average' 3.52 x10^-10 M divided by the KD
Method: as §1, §2

[4] = molecular target: c-Met protein receptors on HUVEC (human, UniProt P08581 25-1390); assay: cell-based or functional assay
c-Met protein receptors on HUVEC, sequence (P08581 25-1390): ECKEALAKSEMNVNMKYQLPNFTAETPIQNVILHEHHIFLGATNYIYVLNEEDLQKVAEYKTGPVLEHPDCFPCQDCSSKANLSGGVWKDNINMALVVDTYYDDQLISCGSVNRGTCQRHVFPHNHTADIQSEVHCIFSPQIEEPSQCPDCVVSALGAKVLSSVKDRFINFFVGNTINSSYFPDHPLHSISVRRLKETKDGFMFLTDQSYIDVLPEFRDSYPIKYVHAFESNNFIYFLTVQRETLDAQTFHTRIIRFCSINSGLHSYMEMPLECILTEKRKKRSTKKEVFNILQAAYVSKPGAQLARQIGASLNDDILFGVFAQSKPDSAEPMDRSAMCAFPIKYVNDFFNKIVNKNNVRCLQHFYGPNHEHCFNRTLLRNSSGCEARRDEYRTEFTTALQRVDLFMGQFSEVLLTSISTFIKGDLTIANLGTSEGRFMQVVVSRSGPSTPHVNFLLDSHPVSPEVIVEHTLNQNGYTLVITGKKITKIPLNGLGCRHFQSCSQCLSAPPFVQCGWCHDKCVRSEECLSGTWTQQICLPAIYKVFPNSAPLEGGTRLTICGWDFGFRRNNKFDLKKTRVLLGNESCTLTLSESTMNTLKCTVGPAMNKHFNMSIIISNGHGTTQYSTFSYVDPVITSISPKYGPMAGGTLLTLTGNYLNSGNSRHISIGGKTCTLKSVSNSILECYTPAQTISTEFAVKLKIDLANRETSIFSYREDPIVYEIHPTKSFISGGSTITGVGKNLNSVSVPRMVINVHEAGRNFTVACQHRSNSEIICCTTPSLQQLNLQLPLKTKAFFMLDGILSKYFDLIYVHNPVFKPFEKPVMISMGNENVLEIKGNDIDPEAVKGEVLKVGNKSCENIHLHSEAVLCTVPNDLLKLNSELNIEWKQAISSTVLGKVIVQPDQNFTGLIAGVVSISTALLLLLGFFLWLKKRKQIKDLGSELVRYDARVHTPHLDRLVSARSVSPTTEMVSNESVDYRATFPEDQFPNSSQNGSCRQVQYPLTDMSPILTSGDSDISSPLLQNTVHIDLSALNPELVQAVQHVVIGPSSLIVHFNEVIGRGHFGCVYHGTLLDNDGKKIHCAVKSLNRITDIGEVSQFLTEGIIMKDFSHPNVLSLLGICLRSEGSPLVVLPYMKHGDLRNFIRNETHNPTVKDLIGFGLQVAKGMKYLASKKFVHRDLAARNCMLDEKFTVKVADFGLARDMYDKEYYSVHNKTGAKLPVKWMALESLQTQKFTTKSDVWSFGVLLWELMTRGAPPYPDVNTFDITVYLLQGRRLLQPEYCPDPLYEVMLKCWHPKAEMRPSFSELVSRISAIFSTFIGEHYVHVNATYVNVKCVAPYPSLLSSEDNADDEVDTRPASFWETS

T1 sequence (P08581 25-932 limits assumed): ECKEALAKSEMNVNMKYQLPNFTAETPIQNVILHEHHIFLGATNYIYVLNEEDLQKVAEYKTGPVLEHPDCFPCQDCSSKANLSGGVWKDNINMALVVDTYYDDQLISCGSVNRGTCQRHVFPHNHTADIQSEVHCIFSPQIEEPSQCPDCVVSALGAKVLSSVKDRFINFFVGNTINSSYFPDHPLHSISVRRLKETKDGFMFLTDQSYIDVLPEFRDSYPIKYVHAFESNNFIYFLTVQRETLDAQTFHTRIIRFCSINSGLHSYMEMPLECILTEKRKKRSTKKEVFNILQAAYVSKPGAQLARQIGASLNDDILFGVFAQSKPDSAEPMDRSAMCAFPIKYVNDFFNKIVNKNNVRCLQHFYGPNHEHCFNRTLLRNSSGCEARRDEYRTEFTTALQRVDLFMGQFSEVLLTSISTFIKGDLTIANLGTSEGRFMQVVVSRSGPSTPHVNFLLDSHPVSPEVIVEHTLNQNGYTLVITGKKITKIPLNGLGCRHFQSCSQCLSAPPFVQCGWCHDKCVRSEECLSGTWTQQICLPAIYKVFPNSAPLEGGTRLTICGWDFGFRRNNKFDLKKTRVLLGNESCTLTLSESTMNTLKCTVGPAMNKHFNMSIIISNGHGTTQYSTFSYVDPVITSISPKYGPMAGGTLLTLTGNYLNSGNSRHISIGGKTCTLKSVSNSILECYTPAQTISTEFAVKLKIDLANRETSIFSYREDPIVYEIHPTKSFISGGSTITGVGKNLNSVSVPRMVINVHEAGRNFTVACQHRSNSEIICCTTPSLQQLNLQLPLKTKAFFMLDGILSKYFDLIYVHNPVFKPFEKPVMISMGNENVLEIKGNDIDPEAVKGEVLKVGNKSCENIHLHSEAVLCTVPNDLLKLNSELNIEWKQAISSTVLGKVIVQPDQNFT

B1: VH6/Vk0 (antibody, IgG1, V domains shown)
VH: QVQLVQSGAEVKKPGSSVKVSCKASGYSFPTHWITWVRQAPGQGLEWMGTIDPTDSYNFYGPSFQGRVTITADKSTSTAYMELSSLRSEDTAVYYCARDGNYYDSRGYYYDTFDMWGQGTLVTVSS
VL: DIQMTQSPSFLSASVGDRVTITCRASQGISTYLAWYQQKPGTAPKLLIYSASTLESGVPSRFSGSGSGTDFTLTISSLQPEDSATYYCQQADSFPLTFGGGTKVEIK
notes: Full IgG1/kappa expressed in HEK 293 EBNA cells
[1]
  Kd: 0.414 nM
  Relative KD to VMDO2 VH0/Vk0: 0.8
[2]
  Index 2 (binding affinity, inverse KD relative to VH0/Vk0): 1.26
[3]
  Index 1 (binding affinity, inverse KD relative to the Average 3.52): 0.85
[4]
  Index 1 (Relative Migration divided by the Average 157.5), HUVEC migration assay: 0.962
  Index 2 (Relative Migration relative to VH0/Vk0), HUVEC migration assay: 1.01
  Relative Migration (%), HUVEC migration assay, 90 ng/ml: 152%

B2: VH0/Vk0 (antibody, IgG1, V domains shown)
VH: QVQLVQSGAEVKKPGESLRISCQGSGYSFPTHWITWVRQMPGKGLEWMGTIDPTDSYNFYGPSFQGHVTISADSSSSTAYLQWSSLKASDTAMYYCARDGNYYDSRGYYYDTFDMWGQGTLVTVSS
VL: DIQMTQSPSFLSASVGDRVTITCRASQGISTYLAWYQQKPGTAPKLLIYSASTLESGVPSRFSGSGSGTDFTLTISSLQPEDSATYYCQQADSFPLTFGGGTKVEIK
notes: Full IgG1/kappa with the variable domains of 1E4; also called 1E4 antibody variant including the constant domain where the residues were substituted
[1]
  Kd: 0.52 nM
  Relative KD to VMDO2 VH0/Vk0: 1
[2]
  Index 2 (binding affinity, inverse KD relative to VH0/Vk0): 1
[3]
  Index 1 (binding affinity, inverse KD relative to the Average 3.52): 0.677
[4]
  Index 1 (Relative Migration divided by the Average 157.5), HUVEC migration assay: 0.951
  Index 2 (Relative Migration relative to VH0/Vk0), HUVEC migration assay: 1
  Relative Migration (%), HUVEC migration assay, 90 ng/ml: 150%

B3: VH2/Vk2 (antibody, IgG1, V domains shown)
VH: EVQLVQSGAEVKKPGESLKISCKGSGYSFPTHWITWVRQMPGKGLEWMGTIDPTDSYNFYGPSFQGQVTISADKSISTAYLQWSSLKASDTAMYYCARDGNYYDSRGYYYDTFDMWGQGTLVTVSS
VL: DIQMTQSPSSLSASVGDRVTITCRASQGISTYLAWYQQKPGKAPKLLIYSASTLESGVPSRFSGSGSGTDFTLTISSLQPEDFATYYCQQADSFPLTFGGGTKVEIK
notes: as for B1
[1]
  Kd: 0.502 nM
  Relative KD to VMDO2 VH0/Vk0: 0.97
[2]
  Index 2 (binding affinity, inverse KD relative to VH0/Vk0): 1.04
[3]
  Index 1 (binding affinity, inverse KD relative to the Average 3.52): 0.701
[4]
  Index 1 (Relative Migration divided by the Average 157.5), HUVEC migration assay: 1.12
  Index 2 (Relative Migration relative to VH0/Vk0), HUVEC migration assay: 1.18
  Relative Migration (%), HUVEC migration assay, 90 ng/ml: 176%

B4: VH2/Vk0 (antibody, IgG1, V domains shown)
VH: EVQLVQSGAEVKKPGESLKISCKGSGYSFPTHWITWVRQMPGKGLEWMGTIDPTDSYNFYGPSFQGQVTISADKSISTAYLQWSSLKASDTAMYYCARDGNYYDSRGYYYDTFDMWGQGTLVTVSS
VL: DIQMTQSPSFLSASVGDRVTITCRASQGISTYLAWYQQKPGTAPKLLIYSASTLESGVPSRFSGSGSGTDFTLTISSLQPEDSATYYCQQADSFPLTFGGGTKVEIK
notes: as for B1
[1]
  Kd: 0.534 nM
  Relative KD to VMDO2 VH0/Vk0: 1.03
[2]
  Index 2 (binding affinity, inverse KD relative to VH0/Vk0): 0.974
[3]
  Index 1 (binding affinity, inverse KD relative to the Average 3.52): 0.659
[4]
  Index 1 (Relative Migration divided by the Average 157.5), HUVEC migration assay: 0.993
  Index 2 (Relative Migration relative to VH0/Vk0), HUVEC migration assay: 1.04
  Relative Migration (%), HUVEC migration assay, 90 ng/ml: 156%

B5: VH0/Vk2 (antibody, IgG1, V domains shown)
VH: QVQLVQSGAEVKKPGESLRISCQGSGYSFPTHWITWVRQMPGKGLEWMGTIDPTDSYNFYGPSFQGHVTISADSSSSTAYLQWSSLKASDTAMYYCARDGNYYDSRGYYYDTFDMWGQGTLVTVSS
VL: DIQMTQSPSSLSASVGDRVTITCRASQGISTYLAWYQQKPGKAPKLLIYSASTLESGVPSRFSGSGSGTDFTLTISSLQPEDFATYYCQQADSFPLTFGGGTKVEIK
notes: as for B1
[1]
  Kd: 0.512 nM
  Relative KD to VMDO2 VH0/Vk0: 0.98
[2]
  Index 2 (binding affinity, inverse KD relative to VH0/Vk0): 1.02
[3]
  Index 1 (binding affinity, inverse KD relative to the Average 3.52): 0.688
[4]
  Index 1 (Relative Migration divided by the Average 157.5), HUVEC migration assay: 1.03
  Index 2 (Relative Migration relative to VH0/Vk0), HUVEC migration assay: 1.09
  Relative Migration (%), HUVEC migration assay, 90 ng/ml: 163%

B6: VH6/Vk2 (antibody, IgG1, V domains shown)
VH: QVQLVQSGAEVKKPGSSVKVSCKASGYSFPTHWITWVRQAPGQGLEWMGTIDPTDSYNFYGPSFQGRVTITADKSTSTAYMELSSLRSEDTAVYYCARDGNYYDSRGYYYDTFDMWGQGTLVTVSS
VL: DIQMTQSPSSLSASVGDRVTITCRASQGISTYLAWYQQKPGKAPKLLIYSASTLESGVPSRFSGSGSGTDFTLTISSLQPEDFATYYCQQADSFPLTFGGGTKVEIK
notes: as for B1
[1]
  Kd: 0.44 nM
  Relative KD to VMDO2 VH0/Vk0: 0.85
[2]
  Index 2 (binding affinity, inverse KD relative to VH0/Vk0): 1.18
[3]
  Index 1 (binding affinity, inverse KD relative to the Average 3.52): 0.8
[4]
  Index 1 (Relative Migration divided by the Average 157.5), HUVEC migration assay: 0.979
  Index 2 (Relative Migration relative to VH0/Vk0), HUVEC migration assay: 1.03
  Relative Migration (%), HUVEC migration assay, 90 ng/ml: 154%

B7: VH4/Vk5 (antibody, IgG1, V domains shown)
VH: QVQLVQSGAEVKKPGSSVKVSCQGSGYSFPTHWITWVRQAPGQGLEWMGTIDPTDSYNFYGPSFQGRVTITADSSTSTAYMELSSLRSEDTAMYYCARDGNYYDSRGYYYDTFDMWGQGTLVTVSS
VL: EIVLTQSPGTLSLSPGERATLSCRASQGISTYLAWYQQKPGQAPRLLIYSASTLESGIPDRFSGSGSGTDFTLTISRLEPEDFATYYCQQADSFPLTFGGGTKVEIK
notes: as for B1
[1]
  Kd: 0.526 nM
  Relative KD to VMDO2 VH0/Vk0: 1.01
[2]
  Index 2 (binding affinity, inverse KD relative to VH0/Vk0): 0.989
[3]
  Index 1 (binding affinity, inverse KD relative to the Average 3.52): 0.669
[4]
  Index 1 (Relative Migration divided by the Average 157.5), HUVEC migration assay: 1.09
  Index 2 (Relative Migration relative to VH0/Vk0), HUVEC migration assay: 1.14
  Relative Migration (%), HUVEC migration assay, 90 ng/ml: 171%
